41 substances from the supplement of paper PMC11502859 can be followed below.
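Further: lentiviral eGFP-IRES-mCherry reporter pool sorted by FACS 96 h post-transduction, gated on mCherry-high cells, Illumina read counts normalized per million, median across four biological replicates.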

The data set deals with HEK293T. The experiment in a line: median enrichment of reporter reads in eGFP-reduced (low/intermediate) vs eGFP-high sorted cells (eGFP-extension fusion abundance) (ratio); higher = stronger loss of eGFP-fusion protein abundance (more destabilising extension).
Take YFSPFFSPEMKTTSPLSLWKQSSVLHTTRC [ARL1]: the median enrichment was 11.4. In the case of YQVIAEQMNRPPASVANTRSISLGQWTNT [LCP2] it was 2.43. Consider “WLTAALAHSARGQDGGYLRPVLSCLFVFLIRDHVGLLRTRKAGKFPAGPSA [MKS1]”, for which the median enrichment is 10.7. As to QKPYEYCEYGKAI [ZNF569], the median enrichment amounted to 0.563. With “SVAMVKVSVAAAAMASRRRCWDCFALEPASGCPLQWLCYCMDCILDFMCMSQ [DYNLL2]”, the median enrichment was determined as 11. For RGAV [RELT] the value was 0.538; for QVPFPLLNIKLNSI [NSMAF], 2.85; for SRL [ICAM4], 0.718. For WDFGSF [TSPAN31] the value was 0.573.

As to LALYLGSGQELHLGTNSC [ABCF2], the median enrichment worked out at 6.15.

With WARRASQRSGQAVRPWPSVC [INMT], the median enrichment is 9.99.

In the case of “GGAAAAWSLRPSRPPSAAPSAAVCVAWASFQLTHGLKNRCFI [TMEM18]”, the median enrichment is 5.44. In the case of YDGGQIKVLAFRCL [KCNMB3] it was 9.29; in that of “SGLLPLGPLTLSGWWTTKYNPVYNLKIYFTFVLLYLFIKG [SMAD4]”, 7.74; in that of “LTATRMDTALAVPTLDRVSALLHTGGGAGAYSCSIKHPSYAPPQ [ACTL7A]”, 9.25. “LPSRSTATQVYLPLPSNPFPRAIFISPNKRAPRK [HRC]”: the median enrichment was 11.1. In the case of VVV [Val03] it was 0.518. For DDDDDDDD [Asp08] the value was 0.299. In the case of “SAASWPWGRGLGCGAVWVLSSSPLPRPSLSNPAWDLGFNAEAMSLSGPASGYSHPGTEKAADGDCLPQPQQHLGLQLLESYHP [LGALS9]” it was 7.86; in that of EEEEEEEEEE [Glu10], 0.42. With LKILVLLNYLI [TIPARP], the median enrichment amounted to 10.8. In the case of “GGLLPLGPLTLSGWWTTKYNPVYNLKIYFTFVLLYLFIKG [SMAD4]” it was 5.18. For “YHRPVPGATWGPCGGKPFPPPRGDAQPPSGPPFGHHQVPKVPQEASTLHARPASISLSFPVWPSFEGHVRWRSQARQTLTRGL [PLPP7]” the value was 8.18; for “HLPIPASLARALLGPEQRRTCPTHTAIYSSRHRAPLPYSWSQQPGNGVALHWPLASTLSGAPAVGWGTPAKDQFGCLIPGAVT [CRHR2]”, 3.84. In the case of “GTHNLHLSGYYYRFLHAQSRRIWTQMVTITSWPTNKKVLTML [ZNF717]” it was 7.8; in that of AAAAAAA [Ala07], 8.7. Regarding RERGLSSSLPAPSSPRPSSLCAW [HOXC10], the median enrichment is 4.17. For DDDDDD [Asp06] the value was 0.38; for SNWGAFSPEQRGPRHAVERLHLPPFPGQQD [COX14], 0.854.

Take EEE [Glu03]: the median enrichment was found to be 9.28. In the case of LLYSILWSSSSVARPLILSFAHVHPN [KCNK17] it was 25.2; in that of “SGPPFGHHQVPKVPQEASTLHARPASISLSFPVWPSFEGHVRWRSQARQTLTRGLSSKRALGWTTENISSRGSYNKNTYLPAL [PLPP7]”, 3.53; in that of “CCSSVKEQQTWHWNRVENPGFCTWRGKMPSCFLINPNFIYSSGTLWG [OPALIN]”, 5.49. As for WSSSSSFIGLSGC [EDARADD], the median enrichment is 1.2. In the case of YQLFAISCTQTCVIYAPGNQ [MAST2] it was 7.02; in that of YVGRSPRPLPSSGDNQQ [CPNE9], 0.56; in that of SLFSLTYRMLV [ZNF639], 6.9. For RTQDSE [CD3G] the value was 0.492; for “APSCLSRCDRARPKPGCTLLDWASLHCLGKSAEGPKLLRGLRLVPTPKLVCSLPLPARVSGPRSIENTTTMARWKGLLVPASS [MLST8]”, 5.58. For YRLLSKHRFSR [Degron FEM1A/C] the value was 5.74; for “YLICTNMTQMFSKITGKPLTSICVSQLTEKKITCSSFIISHWNII [SENP7]”, 3.44.
